Results taken from patent US20200317768A1 (published 2020).
Substitutions are numbered along the chain they refer to.

Legend:
Assay in all cases: SPR (BIACORE); KD of SG1 / KD of variant;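 further: relative to parent M103205H795-SG1 carrying the SG1 human heavy chain constant region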
[1] = biological target: T1, cynomolgus monkey FcγRIIa1 extracellular domain with C-terminal His-tag (cynomolgus monkey)
T1 construct: also called cyno FcgRIIa1; cynoFcγRIIa1
T1 chain: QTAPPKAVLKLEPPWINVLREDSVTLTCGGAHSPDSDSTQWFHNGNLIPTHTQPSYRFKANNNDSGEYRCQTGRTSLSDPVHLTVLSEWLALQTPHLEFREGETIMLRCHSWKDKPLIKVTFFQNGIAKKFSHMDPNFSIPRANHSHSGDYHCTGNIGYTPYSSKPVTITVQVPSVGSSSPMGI

[2] = biological target: T2, cynomolgus monkey FcγRIIa2 extracellular domain with C-terminal His-tag (cynomolgus monkey)
T2 construct: also called cyno FcgRIIa2; cynoFcγRIIa2
T2 chain: T1 chain with P95T, T121A, I127K, A128S, K130N, D135N, R142Q

[3] = biological target: T3, cynomolgus monkey FcγRIIa3 extracellular domain with C-terminal His-tag (cynomolgus monkey)
T3 construct: also called cyno FcgRIIa3; cynoFcγRIIa3
T3 chain: T1 chain with P95T, T121A, A128S, H133P, D135N

[4] = biological target: T4, cynomolgus monkey FcγRIIb extracellular domain with C-terminal His-tag (cynomolgus monkey)
T4 construct: also called cyno FcgRIIb; cynoFcγRIIb
T4 chain: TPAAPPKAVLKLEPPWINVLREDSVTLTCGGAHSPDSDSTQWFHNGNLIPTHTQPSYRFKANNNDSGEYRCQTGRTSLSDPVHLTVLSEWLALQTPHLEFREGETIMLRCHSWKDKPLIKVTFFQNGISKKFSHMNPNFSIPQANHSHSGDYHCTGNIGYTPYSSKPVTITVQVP

[5] = biological target: T5, human FcγRIIaH extracellular domain with C-terminal His-tag (human, UniProt P12318 34-217)
T5 construct: also called human FcgRIIaH; FcγRIIa (type H)
T5 sequence: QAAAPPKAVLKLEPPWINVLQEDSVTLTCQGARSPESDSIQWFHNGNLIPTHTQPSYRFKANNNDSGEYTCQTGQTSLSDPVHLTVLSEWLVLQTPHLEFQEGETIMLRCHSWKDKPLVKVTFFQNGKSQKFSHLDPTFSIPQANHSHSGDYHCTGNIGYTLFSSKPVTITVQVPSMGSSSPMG

[6] = biological target: T6, human FcγRIIaR extracellular domain with C-terminal His-tag (human, UniProt P12318 34-217)
T6 construct: also called human FcgRIIaR; FcγRIIa (type R)
T6 chain: T5 sequence with H134R

[7] = biological target: T7, human FcγRIIb extracellular domain with C-terminal His-tag (human, UniProt P31994 43-217)
T7 construct: also called human FcgRIIb
T7 sequence: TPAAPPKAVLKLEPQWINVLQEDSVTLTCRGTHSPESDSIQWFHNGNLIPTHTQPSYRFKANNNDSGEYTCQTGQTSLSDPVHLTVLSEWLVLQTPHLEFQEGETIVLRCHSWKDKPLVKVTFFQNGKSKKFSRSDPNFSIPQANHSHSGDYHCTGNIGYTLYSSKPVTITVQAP

[8] = biological target: T8, human FcγRIIIaV extracellular domain with C-terminal His-tag (human, UniProt P08637 17-208)
T8 construct: also called human FcgRIIIaV
T8 sequence (P08637 17-208 F176V): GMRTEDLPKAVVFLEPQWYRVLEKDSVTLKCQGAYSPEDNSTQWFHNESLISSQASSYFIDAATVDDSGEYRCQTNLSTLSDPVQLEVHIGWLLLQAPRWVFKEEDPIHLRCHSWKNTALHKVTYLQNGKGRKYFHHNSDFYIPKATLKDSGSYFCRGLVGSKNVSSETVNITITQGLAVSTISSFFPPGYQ

B1: M103205H795-MY527/M103202L889-SK1 (antibody, human IgG1, kappa)
heavy: QVTLKESGPVLVKPTETLTLTCTVSGIDLSHDDISWVRQAPGKGLEWVGIISYAGSTYYASWAKGRLTISKDTSKNQVVLTMTNMDPVDTATYYCARGVPAYSHGGDLWGQGTLVTVSSASTKGPSVFPLAPSSKSTSGGTAALGCLVKDYFPEPVTVSWNSGALTSGVHTFPAVLQSSGLYSLSSVVTVPSSSLGTQTYICNVNHKPSNTKVDKKVEPKSCDKTHTCPPCPTPELLTGPSVFLFPPKPKDTLMISRTPEVTCVVVDVSDEDPEVKFNWYVDGVEVHNAKTKPREELYNSTYRVVSVLTVLHQDWLNGKEYKCKVSNKALPKPIEKTISKAKGQPREPQVYTLPPSREEMTKNQVSLTCLVKGFYPSDIAVEWESNGQPENNYKTTPPVLDSDGSFFLYSKLTVDKSRWQQGNVFSCSVMHEALHNHYTQKSLSLSP
light: DIVMTQSPATLSLSPGERATLSCTSSQSVYHANWLSWFQQKPGQPPKLLIYWASTLAYGVPSRFSGSGSGTDFTLTISSLQPEDAATYYCAGGYGGGRYAFGQGTKVEIKRTVAAPSVFIFPPSDEQLKSGTASVVCLLNNFYPREAKVQWKVDNALQSGNSQESVTEQDSKDSTYSLSSTLTLSKADYEKHKVYACEVTHQGLSSPVTKSFNRGEC
notes: Substitutions introduced into M103205H795-SG1, expressed with M103202L889-SK1 as light chain; EU numbering
Q: With B1 as the binder, how does the “KD fold (SG1 = 1)” value [1] read?
A: Its value is 2.9 fold.

Q: And the “KD fold (SG1 = 1)” value [2]?
A: The value was 3.5 fold.

Q: What about the “KD fold (SG1 = 1)” value [3] of the same binder?
A: Its value is 5 fold.

Q: And the “KD fold (SG1 = 1)” value [4]?
A: The value was 5 fold.

Q: What about the “KD fold (SG1 = 1)” value [5] of the same binder?
A: The value was 6.3 fold.

Q: And the “KD fold (SG1 = 1)” value [6]?
A: Its value is 3.8 fold.

Q: And the “KD fold (SG1 = 1)” value [7]?
A: Its value is 3.5 fold.

Q: What about the “KD fold (SG1 = 1)” value [8] of the same binder?
A: The value was 0.18 fold.

B2: M103205H795-MY530/M103202L889-SK1 (antibody, human IgG1, kappa)
heavy: B1 heavy with T233A, L297Q, K328T
light: B1 light
notes: as for B1
Q: Which “KD fold (SG1 = 1)” value [1] does the source give for B2 here?
A: The value was 2.3 fold.

Q: What about the “KD fold (SG1 = 1)” value [2] of the same binder?
A: The value was 4.6 fold.

Q: What about the “KD fold (SG1 = 1)” value [3] of the same binder?
A: Its value is 6.8 fold.

Q: What about the “KD fold (SG1 = 1)” value [4] of the same binder?
A: Its value is 5.6 fold.

Q: And the “KD fold (SG1 = 1)” value [5]?
A: Its value is 4.1 fold.

Q: And the “KD fold (SG1 = 1)” value [6]?
A: Its value is 4.1 fold.

Q: And the “KD fold (SG1 = 1)” value [7]?
A: Its value is 2.5 fold.

Q: And the “KD fold (SG1 = 1)” value [8]?
A: Its value is 0.23 fold.

B3: M103205H795-MY529/M103202L889-SK1 (antibody, human IgG1, kappa)
heavy: B1 heavy with T233A, L236W
light: B1 light
notes: as for B1
Q: For B3, which “KD fold (SG1 = 1)” value [1] is on record?
A: The value was 3.2 fold.

Q: And the “KD fold (SG1 = 1)” value [2]?
A: Its value is 3.6 fold.

Q: What about the “KD fold (SG1 = 1)” value [3] of the same binder?
A: The value was 5.3 fold.

Q: What about the “KD fold (SG1 = 1)” value [4] of the same binder?
A: The value was 6 fold.

Q: And the “KD fold (SG1 = 1)” value [5]?
A: Its value is 3 fold.

Q: What about the “KD fold (SG1 = 1)” value [6] of the same binder?
A: The value was 2.1 fold.

Q: What about the “KD fold (SG1 = 1)” value [7] of the same binder?
A: The value was 3.3 fold.

Q: And the “KD fold (SG1 = 1)” value [8]?
A: The value was 0.2 fold.

B4: M103205H795-MY531/M103202L889-SK1 (antibody, human IgG1, kappa)
heavy: B1 heavy with T233A, L236W, L297Q, K328T
light: B1 light
notes: as for B1
Q: What does the source list for B4?
A: KD fold (SG1 = 1) [1]: 2.9 fold; KD fold (SG1 = 1) [2]: 3.5 fold; KD fold (SG1 = 1) [3]: 7.7 fold; KD fold (SG1 = 1) [4]: 6.7 fold; KD fold (SG1 = 1) [5]: 2.4 fold; KD fold (SG1 = 1) [6]: 2.7 fold; KD fold (SG1 = 1) [7]: 3.2 fold; KD fold (SG1 = 1) [8]: 0.25 fold

B5: M103205H795-MY528/M103202L889-SK1 (antibody, human IgG1, kappa)
heavy: B1 heavy with T233A, L236W, L297Q
light: B1 light
notes: as for B1
Q: How did the “KD fold (SG1 = 1)” value [1] turn out when B5 was run?
A: Its value is 2.3 fold.

Q: And the “KD fold (SG1 = 1)” value [2]?
A: Its value is 3.4 fold.

Q: What about the “KD fold (SG1 = 1)” value [3] of the same binder?
A: Its value is 5.3 fold.

Q: And the “KD fold (SG1 = 1)” value [4]?
A: Its value is 4.4 fold.

Q: What about the “KD fold (SG1 = 1)” value [5] of the same binder?
A: The value was 2 fold.

Q: And the “KD fold (SG1 = 1)” value [6]?
A: The value was 2 fold.

Q: What about the “KD fold (SG1 = 1)” value [7] of the same binder?
A: The value was 2.1 fold.

Q: What about the “KD fold (SG1 = 1)” value [8] of the same binder?
A: Its value is 0.19 fold.

B6: M103205H795-MY532/M103202L889-SK1 (antibody, human IgG1, kappa)
heavy: B1 heavy with T233A, L236W, S241V, L297Q
light: B1 light
notes: as for B1
Q: With B6 as the binder, how does the “KD fold (SG1 = 1)” value [1] read?
A: The value was 4.2 fold.

Q: What about the “KD fold (SG1 = 1)” value [2] of the same binder?
A: Its value is 8.5 fold.

Q: And the “KD fold (SG1 = 1)” value [3]?
A: Its value is 23 fold.

Q: And the “KD fold (SG1 = 1)” value [4]?
A: The value was 7.8 fold.

Q: What about the “KD fold (SG1 = 1)” value [5] of the same binder?
A: Its value is 3.3 fold.

Q: What about the “KD fold (SG1 = 1)” value [6] of the same binder?
A: Its value is 3.8 fold.

Q: What about the “KD fold (SG1 = 1)” value [7] of the same binder?
A: Its value is 5.5 fold.

Q: What about the “KD fold (SG1 = 1)” value [8] of the same binder?
A: Its value is 0.43 fold.
